Source: the supplement of paper PMC10126150
± gives the standard deviation of the averaged measurements.

Each sequence was assayed on ATP (assay: switch fluorescence ratio, 500 uM ATP over buffer (Cy3 cluster intensity, sum of 5 cycles each) (fold (ratio)); higher = stronger signal-on switching upon ATP binding; sequences stand for … in TCGTCGGCAGCGTCAGATGTGTATAAGAGACAGTTTTTTTTTTTTTTTTTTTTTTTTT…TC). Details: aptamer strand: ATP DNA aptamer (quencher-CACCTGGGGGAGTATTGCGGAGGAAGG + anchor), 100 nM annealed; ATP concentration: 500 uM.
How it was run: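 Between each of five buffer/ATP cycles, the flow-cell was stripped with NaOH and re-annealed. Each cycle imaged Cy3-labelled switching-strand clusters, annealed to 100 nM quencher-labelled ATP aptamer on a modified Illumina MiSeq flow-cell, first in selection buffer and then after 15 min with 500 uM ATP at 22 °C. The fluorescence ratio is summed target-cycle over summed buffer-cycle Cy3 intensity per cluster, averaged per switch-domain sequence, with clusters outside 100-1000 RFU excluded.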
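Also: ATP exposure 15 min at 22 °C before imaging.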

Sequence	switch fluorescence ratio
AGGACGTTTT	0.962 ± 0.01
AGGACTTGTG	0.972 ± 0.023
AGGACTTTGG	1.05 ± 0.056
AGGAGACAAG	0.948 ± 0.053
AGGAGATACT	1.09 ± 0.15
AGGAGATTTT	0.957 ± 0.032
AGGAGCTGCG	0.998 ± 0.038
AGGAGGACGG	1.01 ± 0.042
AGGAGGATCG	0.97 ± 0.079
AGGAGGCCAG	0.969 ± 0.05
AGGAGGCGTT	0.992 ± 0.029
AGGAGGGACT	1 ± 0.041
AGGAGGGAG	1.003 ± 0.0093
AGGAGGGGGA	1.03 ± 0.045
AGGAGGGGT	1.02 ± 0.07
AGGAGTATTT	1 ± 0.024
AGGAGTGGTG	0.994 ± 0.034
AGGAGTGTTT	1 ± 0.037
AGGAGTTTCG	1.01 ± 0.044
AGGATACCGC	1.12 ± 0.048
AGGATAGGGT	1.02 ± 0.05
AGGATCATGT	0.966 ± 0.042
AGGATGAAAT	0.992 ± 0.051
AGGATGGGCG	0.928 ± 0.039
AGGATTAACA	1.05 ± 0.013
AGGATTAGGG	1 ± 0.033

Sequence	switch fluorescence ratio
AGGATTATTG	0.991 ± 0.017
AGGATTGAAC	0.991 ± 0.018
AGGATTGGTG	0.999 ± 0.052
AGGATTTATA	0.991 ± 0.086
AGGCAAAGGG	0.995 ± 0.044
AGGCAACGGT	1.01 ± 0.012
AGGCAATATG	1.19 ± 0.018
AGGCAATTTG	1 ± 0.071
AGGCACCAAC	1.16 ± 0.044
AGGCACGACG	0.9561 ± 0.0074
AGGCACGGGG	0.9932 ± 0.0087
AGGCACTTTT	1.04 ± 0.015
AGGCCCACGG	1.006 ± 0.0067
AGGCCCGGAG	1.05 ± 0.045
AGGCCGAGGG	0.985 ± 0.012
AGGCCGATGG	0.983 ± 0.021
AGGCCGGTGC	1.04 ± 0.03
AGGCCGGTTT	1.017 ± 0.0061
AGGCCTCAGA	0.973 ± 0.015
AGGCCTCTGT	0.99 ± 0.011
AGGCGATATA	1 ± 0.024
AGGCGATGCG	0.994 ± 0.097
AGGCGCACGG	1.01 ± 0.029
AGGCGGCGG	0.975 ± 0.022
AGGCGGGGGC	1.03 ± 0.068
AGGCGGTGTG	0.973 ± 0.036

Sequence	switch fluorescence ratio
AGGCGTATAC	1.79 ± 0.18
AGGCGTGCTT	0.987 ± 0.032
AGGCGTGGGA	1.001 ± 0.0083
AGGCGTGTCA	1.004 ± 0.0083
AGGCGTTCTG	0.991 ± 0.051
AGGCTAACGA	1.015 ± 0.0049
AGGCTAGGGG	1.01 ± 0.042
AGGCTATTTC	0.994 ± 0.019
AGGCTCATAG	0.96982 ± 0.00072
AGGCTCATTG	1.01 ± 0.033
AGGCTGCAG	0.961 ± 0.037
AGGCTGCGTT	1.02 ± 0.038
AGGCTGGGGT	1.02 ± 0.031
AGGCTTAGAC	1.04 ± 0.032
AGGCTTGGTG	0.988 ± 0.012
AGGCTTGTGT	0.99 ± 0.077
AGGCTTTTTT	0.966 ± 0.065
AGGGAAACGG	0.96 ± 0.018
AGGGAAAGTC	0.9854 ± 0.0058
AGGGAAATGG	0.979 ± 0.034
AGGGAACGAC	1.03 ± 0.05
AGGGAAGAGA	1 ± 0.021
AGGGAATCGG	0.976 ± 0.03
AGGGAATGAT	1.01 ± 0.015
